Experiment in all cases: ITC
For orientation: In ITC the heat of successive injections is recorded.

Test [1] deals with T1, tH2 (aa91-189) mutant R^125R^126A (vaccinia virus, UniProt P08583 91-189, R^125R^126A | R^125R^126A).
T1 sequence: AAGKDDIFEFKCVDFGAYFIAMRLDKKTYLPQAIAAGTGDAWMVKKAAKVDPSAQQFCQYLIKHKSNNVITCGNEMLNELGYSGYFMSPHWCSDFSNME

Test [2] deals with T2, tH2 (aa91-189) mutant W^132A (vaccinia virus, UniProt P08583 91-189, W^132A).
T2 sequence: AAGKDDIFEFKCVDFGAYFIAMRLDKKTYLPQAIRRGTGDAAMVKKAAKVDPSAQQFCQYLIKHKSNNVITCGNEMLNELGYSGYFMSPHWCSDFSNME

The target in test [3] is T3, tH2 (aa91-189) mutant D^141A (vaccinia virus, UniProt P08583 91-189, D^141A).
T3 sequence: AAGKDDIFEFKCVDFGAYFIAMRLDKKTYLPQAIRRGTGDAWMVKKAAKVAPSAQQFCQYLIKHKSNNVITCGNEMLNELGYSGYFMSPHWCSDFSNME

The target of test [4] is T4, tH2 (aa91-189) mutant G^127G^129A (vaccinia virus, UniProt P08583 91-189, G^127G^129A | G^127G^129A).
T4 sequence: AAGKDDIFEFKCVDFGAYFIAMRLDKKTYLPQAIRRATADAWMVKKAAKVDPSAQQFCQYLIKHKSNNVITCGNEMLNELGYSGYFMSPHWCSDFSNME

For test [5], the target named is T5, tH2 (aa91-189) mutant K^116K^117A (vaccinia virus, UniProt P08583 91-189, K^116K^117A | K^116K^117A).
T5 sequence: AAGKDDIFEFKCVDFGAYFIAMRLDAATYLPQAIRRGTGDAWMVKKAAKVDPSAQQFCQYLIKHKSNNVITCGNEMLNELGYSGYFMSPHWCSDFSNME

Test [6] has as its target T6, tH2 (aa91-189) mutant D^130A (vaccinia virus, UniProt P08583 91-189, D^130A).
T6 sequence: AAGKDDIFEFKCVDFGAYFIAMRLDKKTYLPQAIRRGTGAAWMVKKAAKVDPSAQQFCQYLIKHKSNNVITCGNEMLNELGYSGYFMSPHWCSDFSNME

B1: recombinant A28 (aa56-146) (domain or fragment)
chain: DRRVQDVNDTISDVKQKWRCVVYPGNGFVSASIFGFQAEVGPNNTRSIRKFNTMQQCIDFTFSDVININIYNPCVVPNINNAECQFLKSVL
As usually defined, the Kd is the concentration at which binding is half-saturated. Lower therefore signals higher affinity. Take B1: the binding result in test [1], in test [2], in test [3], in test [4] and in test [6] was “binds” throughout. The Kd in test [5] was ~5.3 µM.
